What is called Kd is the constant that tells how readily two partners part at equilibrium. Broadly, the EC50 is the concentration needed to bring the measured effect to its halfway point. A high value points to a less potent agent. As a reminder, the IC50 is the concentration at which inhibition is half-maximal. Read a high IC50 as weaker potency in that assay.

Values joined by “and” are separate entries in the source; they are usually repeats but may differ in a detail not shown here. Equal values may be shown once. Read-outs that look alike come from different tables or passages of the source.

Assay [1] has as its target T1, RON (human, UniProt Q04912). The assay is described as follows: SPR. For orientation: Surface plasmon resonance follows binding to a sensor surface in real time, without labels.
Assay [2] deals with T1, RON. The assay can be described thus: ELISA. A general note: An ELISA detects its analyte on a solid surface through an enzyme-linked reagent.
Assay [3] addresses T1, RON. The assay can be described thus: ELISA. The source holds these as a separate data set.
The target of assay [4] is T2, HGF (human, UniProt P14210). The assay is described as follows: SPR.
In assay [5] the target is T2, HGF. The assay can be described thus: ELISA.
The target in assay [6] is T2, HGF. The assay can be described thus: competition.
Assay [7] has as its target T2, HGF. The assay is described as follows: ELISA. This is another data set of the same source.
The target of assay [8] is T3, NRP1 (human, UniProt O14786). The assay is described as follows: ELISA.
The target in assay [9] is T3, NRP1. The assay is described as follows: SPR.
The next assay has as its target CD22 (human, UniProt P20273). The assay is described as follows: ELISA.
The target in another assay is T4, CD80 (human, UniProt P33681).
T4 chain: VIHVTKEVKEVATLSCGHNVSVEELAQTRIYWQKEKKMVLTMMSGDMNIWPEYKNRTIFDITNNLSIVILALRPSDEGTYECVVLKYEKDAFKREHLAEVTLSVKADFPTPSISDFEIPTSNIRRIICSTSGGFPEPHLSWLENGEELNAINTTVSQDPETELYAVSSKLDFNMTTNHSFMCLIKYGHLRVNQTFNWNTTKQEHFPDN
The assay can be described thus: ELISA.

T2 sequence (P14210 32-728): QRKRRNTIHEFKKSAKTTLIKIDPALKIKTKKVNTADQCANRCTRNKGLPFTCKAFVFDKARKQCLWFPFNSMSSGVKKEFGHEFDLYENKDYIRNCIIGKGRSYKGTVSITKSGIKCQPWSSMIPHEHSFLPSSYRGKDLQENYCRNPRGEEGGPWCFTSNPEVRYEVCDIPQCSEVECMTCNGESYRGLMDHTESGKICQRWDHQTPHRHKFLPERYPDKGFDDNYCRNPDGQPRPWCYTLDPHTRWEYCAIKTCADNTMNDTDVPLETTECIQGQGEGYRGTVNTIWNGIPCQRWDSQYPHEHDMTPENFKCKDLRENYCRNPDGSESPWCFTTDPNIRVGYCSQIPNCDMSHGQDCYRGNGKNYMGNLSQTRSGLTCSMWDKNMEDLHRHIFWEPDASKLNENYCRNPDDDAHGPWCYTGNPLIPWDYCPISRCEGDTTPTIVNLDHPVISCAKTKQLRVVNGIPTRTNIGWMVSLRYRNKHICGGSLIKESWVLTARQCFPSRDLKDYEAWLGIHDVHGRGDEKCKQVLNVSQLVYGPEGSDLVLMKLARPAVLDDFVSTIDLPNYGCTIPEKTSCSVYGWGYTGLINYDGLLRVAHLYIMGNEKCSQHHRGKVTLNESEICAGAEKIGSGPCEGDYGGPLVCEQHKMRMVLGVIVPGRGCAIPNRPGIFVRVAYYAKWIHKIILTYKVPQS

B1: AB005 (antibody, V domains shown)
VH: EVQLVQSGGGLVKPGGSLRLSCAASGFTFSSYAMHWVRQAPGKGLEWVAVISYDGSNKYYADSVKGRFTISRDNSKNTLYLQMNSLRAEDTAVYYCARFSGWPNNYYYYGMDVWGQGTTVTVSS
VL: DVVMTQSPLSLPVTPGEPASISCRSSQSLLHSNGFNYVDWYLQKPGQSPHLLIYFGSYRASGVPDRFSGSGSGTDFTLKISRVEAEDVGVYYCMQALQTPPWTFGQGTKVEIRR
Take B1: the Kd with RON [1] is 20.2 nM and 20.1 nM. For the same molecule, the EC50 in the assay with RON [2] is 0.26 nM and 0.21 nM; with RON [3] it was 1.6 nM and 0.7 nM and 1.3 nM.

B2: DVD045 HGF arm (antibody, V domains shown)
VH: QVQLVESGGGLVKPGGSLRLSCAASGFTFSDYYMSWIRQAPGKGLEWVSYISSSGSTIYYADSVKGRFTISRDNAKNSLYLQMNSLRAEDTAVYYCARDEYNSGWYVLFDYWGQGTLVTVSS
VL: DIQMTQSPSSVSASVGDRVTITCRASQGISSWLAWYQQKPGKAPNLLIYEASSLQSGVPSRFGGSGSGTDFTLTISSLQPEDFATYYCQQANGFPWTFGQGTKVEIKR
modifications: DVD-Ig inner
In turn, B2 yielded a Kd with HGF [4] of 0.901 nM. In addition, the figures for the concentration for a half-maximal effect (EC50) with HGF [5] and with HGF [7] were 185 nM and above 100 nM, respectively. For the same molecule, in the assay with HGF [6], the IC50 was above 100 nM.

B3: DVD049 NRP1 arm (antibody, V domains shown)
VH: EVQLVESGGGLVQPGGSLRLSCAASGFSFSSEPISWVRQAPGKGLEWVSSITGKNGYTYYADSVKGRFTISADTSKNTAYLQMNSLRAEDTAVYYCARWGKKVYGMDVWGQGTLVTVSS
VL: DIQMTQSPSSLSASVGDRVTITCRASQSISSYLAWYQQKPGKAPKLLIYGASSRASGVPSRFSGSGSGTDFTLTISSLQPEDFATYYCQQYMSVPITFGQGTKVEIKR
modifications: DVD-Ig inner
For the molecule B3, the EC50 in the assay with NRP1 [8] stood at 0.5 nM. In addition, binding in the assay with NRP1 [9] was put at a Kd of 1.28 nM.

B4: AB008 (antibody, V domains shown)
VH: QVQLVQSGAEVKKPGSSVKVSCKASGYTFTSYWLHWVRQAPGQGLEWIGYINPRNDYTEYNQNFKDKATITADESTNTAYMELSSLRSEDTAFYFCARRDITTFYWGQGTTVTVSS
VL: DIQLTQSPSSLSASVGDRVTMSCKSSQSVLYSANHKNYLAWYQQKPGKAPKLLIYWASTRESGVPSRFSGSGSGTDFTFTISSLQPEDIATYYCHQYLSSWTFGGGTKLEIKR
B4 returned an EC50 with CD22 of 3.44 nM.

B5: AB007 (antibody, V domains shown)
VH: QVQLQESGPGLVKPSETLSLTCAVSGGSISGGYGWGWIRQPPGKGLEWIGSFYSSSGNTYYNPSLKSQVTISTDTSKNQFSLKLNSMTAADTAVYYCVRDRLFSVVGMVYNNWFDVWGPGVLVTVSS
VL: ESALTQPPSVSGAPGQKVTISCTGSTSNIGGYDLHWYQQLPGTAPKLLIYDINKRPSGISDRFSGSKSGTAASLAITGLQTEDEADYYCQSYDSSLNAQVFGGGTRLTVLG
The molecule B5 came in with an EC50 in the assay with CD80 of 0.77 nM.

(Values after patent US9029508 (dated 2015).)
